From the DeepSol protein solubility set

Experiment: soluble on expression in E. coli; label from the status in PepcDB or PDB records
With “MAHHHHHHMYLYHSNKCAIKKGIPFFRNVASICFLRKAQNGEEVKRRKVFCSAKFISTISEGRETGCGQANTDQPSTPLGSYTEKSSYKDIKIVENEKEGNDAAEEINQNDIIAVDFEGTNLGKYGKVCIMQVYTEERTREGTPPQSECISREKYYIFDLLKMSVIKSVKKIIENKKTLKLVHDCREDSSALYNQLGIKFENVYDTSRAHMLLMEKNKSNDIYQVSFLQLLNDYLGIKDECLSSIKKEMYKNEKIWQVRPLSKMSIIYALKNVKYLFPLYRIFDNMLPKKIVLEKSKDFVNYCLINSRYKLPVDLAKRGNIVQAMLVSKSMLNCVFKLNSTRKGIACTPSSVAQFRDVKVGDVVLCVVSNKSIDQKILYLCKHDDVFDYWNLKERPRGKFKPSIHESATDPMIQFCDEEQPA” the “soluble on expression in E. coli” value was “not soluble”. In the case of “MGSDKIHHHHHHMKLLMIELHQEDCSNIAVSEKIKDAELNLVNVREDGDYTHIDAIFLGDMFKENVISTLRKEKAFNINLKMKSRSEIWVSYDILTTAAWRNFSSLGCTVVPPLRVANGVEKWFVYTPDEISQRDIKRQLEMDNATHISRIRELTLKSFLKVIFNMDFLSDFIDTMEALTDLQVKTIKQAYVNGYYDYPRRCTLGDLAKINGISKNAMAKRLKSVEKKIFECLFGYI”, the “soluble on expression in E. coli” value is reported as “not soluble”. With “MCLDVLIHYPQEKADEMISHLCSLAQSRIILSFAPKTCALTLLKKIGSFFPGPSKTTRAYLHREADVIKILESNGFAIQRKEFTKTRFYFSRILEATRSLEHHHHHH” the “soluble on expression in E. coli” value was “not soluble”. In the case of “MNVMDTHPDGRAIAHLAERIRAGLIGHEILVERLMTALLTGGHVLIEGAPGLAKTRAVKRLAQGLDGSFARIQCTPDLMPSDLTGTQVFRRQSESFDFVPGPIFHSLVLVDEINRAPPKVQSALLEAMAEGQVTAGGVTRPLPDPFMVVATQNPIEHEGTFPLPEAQLDRFLLHVDLAMPGAEAERAILDLVEGEAREAALPAGRPLELAELRRARAAVAGIHLAPALRDFIVRLVIATRETEGSPLEGLIEHAVSPRGTLALAASARSRALLHGRDHALPEDVEALAPDALAHRLVPSWRATSEGISARGIVARLLPHVRPWLEHHHHHH”, the “soluble on expression in E. coli” value is reported as “not soluble”. With “MSLAQGANAPLNIPANPQMFGTNDPNVRRATAIVNGEIITGTDVEQRLALIVSANGGKIDGEEKERLRMQVLRNLIDETLQIQEAKAADVPADDGQVDASYERVATQNFGQSADALEKYLARIGSSAASLKRQIRGEIAWQNLLRRNVQPFVNVSEGEVQEAMQRLQASKGTEEYRIGEIFLAATEENKPQVFANAEKIVEQLKQGGSFVAYARQYSEASTAAVGGDLGWIRLAQLPTELATTAASMGPGQLAGPVEIRGGFSILYLIDKREGHHHHHH” the “soluble on expression in E. coli” value was “soluble”. In the case of “MAHHHHHHMNDCISTDKVDLDKKQIKKFLKQINISQLTKMIQFIDNKLLSDWDFNCLTYFDESEYPFFDINLSLICTIDHNIPINIIINFLCFVEKQYNNVPYHNTIHATMVTQKFFCLAKKLGIYDDLEYKIKLVMFISGICHDIGHPGYNNLFFVNSLHPLSIIYNDISVLENYHASITFKILQLNQCNILKNFSEKDFRMMRSYIIELILSTDMKHHFEIISKFRIRRENEDFDYIKNSDDLLILTKMIIKSADISHGSVSWSEHYCWCQRVLSEFYTQGDEELKNKMPLSPLCDRTKHNEVCKSQITFLKFVVMPLFEELSHIDNNKFIKSFCLKRLNSNCIMWDTLMKEEKTIEVYDPAAVKLKDKKKKKVDKKKKSYIDLTLFFIKNV”, the “soluble on expression in E. coli” value is reported as “not soluble”. With “MGSDKIHHHHHHMIRDARVLRAGFVPREVEHRDAEVNHLSSVLEPITNGEPADTAIVTGPSGAGKTCISQFVTERLREEVLDVETTYVNCWRNYTRFRTLYQILDDLGATIDIHRQSTPHDELVDRLQQHDGPRTVVILDEVDQLEDPSVIYDLHSLPQFAIICIANKEEELFSRVDDRLVSRLRSSEHVRMDKYHDEQLYDILSARAKWGLDEDVITDDQLYRIADAAAGDARLAIGILRTAAGKADRENHERITDDILLNAAEDARAQIKQKSLDSLTPHQRVVYDIVREHGPIGPSEIHERYSEDVDDPRTKRTIRTYLSKMEQYNLLEAEGTSRDREYSLVDSAAASPMQ” the “soluble on expression in E. coli” value was “not soluble”. In the case of “MYSDDLLLEEDSADESSLANAFSRGMQLGSTDASSYSRRFNSNASTSSSNPTTQRRYAPNQAFSQVETGSPPSNDPHARFGQHIPGSQYIPHVSQNSPSRLGQQPPQRYNHGRPNAGRTMDRNHMNAQLPPSNTNSGGQQRSPRSSSYTNGVPWGRRTNNHVPNVPSTSHGRVDYGSIA”, the “soluble on expression in E. coli” value is reported as “soluble”. In the case of “MGSDKIHHHHHHMQAEKLMQVKDAVLKLRQQLRAGQIYQSLPSRMATLIKQLPSTVTTTVTIPSDEEVLPLIATLHEQLKKGTLTAMSDDQIKLLMAHVGSLNPLVRDQGVYYLLNEALQQQVLTPEQLGDIFDQLIQDQMLFAHIDEPQNDAIYQRSFAILLLSVLLYADHAGLKFMTPARLDLVVEQMTVYILLEKDTRGFVGTTGWAHAYTHIGNILDELADESQLARADKLLLLAALIARYQKLTTPLIFGEPERLSTYLTLITNKHELYCDYLLTAMKDWHQQLMMHTRPASEAEWTQIFNRNRLLEALALHDDLPTAVVDYLDDELEFLG”, the “soluble on expression in E. coli” value is reported as “not soluble”. With “MQPLKRIRHPSGSEILFDAKWHQYKLGGTALRSVSKLLDRFFPFDEKRVLELVSKKTGQPVDKIKQGWSRQALLGKNVHEFIECKLLKKPPPTFTLLMKRKQAREAARPADATGPAAITTTPLEDEVLHGEEALYLPVAEMAVEKVLSTYDVLGAEQVIAAPGWGIAGTIDFMGRNRRTNRVLIGDWKTTGSVTSNFRFGSFETACPGALRHLPNSKMYRYAMQVTIYGEILAREQYFEKQFFDAQLRASLTASLAVPSTDVTPPAPPAKTRGRPSSRAAAPAKSDIGSDVESLLKTFYRNNTEQRFEYGIVQLAKGEDGGVVAEFKEVTPETVMPPDCPEMTFDSLLQRVMEGVGV” the “soluble on expression in E. coli” value was “soluble”. In the case of “MSQDNSEELIKVEKVEAFFYPIHGIPTMVLYLEDGREFKMFQIPPEIVIALNRLQEKRDYEELLRGDKRENIYDVLAFSSEIKDQLSKIINRVIINDVNEEYGVYIATVEFKFDGVIIEKQLIPSHAVFLAIVSNRPIYVKKNLVDEQEKQERKSGEDV”, the “soluble on expression in E. coli” value is reported as “soluble”. In the case of “MMDPISIINKYYTEGTNQYHILVEHSRDVAALALRIVEIHPELQADRLFVEEAAMLHDIGIFLTDAESIACFGKEPYILHGYMGANILRKEGYPRHALVCERHTGSGLTSEDIAARQIALPPGIYTPQSIEEKIVCYADKFFSKTKLHRQKKLEDVRRSMLSYGADSLRRFDEMHALFKIPLG”, the “soluble on expression in E. coli” value is reported as “soluble”. In the case of “MGSDKIHHHHHHNKSEDKLSGDDFWAQGNETNAEAFLLSIYNSFRNATMSQRPFLTYSGDMRCAPITAYSTGDKYVAYLANNDMGELRNTYPDDARGGLIMQWDVFYTAIQDANILLAEIDKVPGMDELKRSRFKAEAIFMRSLSYFFIVRAFGDVPYYTNAYNEAPLPRTNMVIVLQNCLADLQPLLDDDPGAEVLPWSYSSYSSKGIRASRGSVIALMMHINLWLVQFDAQNKEQYYRNVVSLGEELERNNGAYSLLDINRSSVIFAGGSDEGLFEIAQNINFNEIFMMNAKFSDNVSYSCLNKSMPLFCYSGDYLMTLFPMYEDDARKELWFDEKIYSTSVSSSAPKEIKKFWNIDTYGNGTITSNSGNQIVFRYAGALLLYAEALAALGTNDTKACELLNRVRNRAHASEINTSGSELMDAIFWERCRELIGEGHYYYDLVRTGKVYNRNYCMNPMTRTNFNVGAWTWPIHRNALKNNTQIGLNLFWE”, the “soluble on expression in E. coli” value is reported as “not soluble”. With “MGSDKIHHHHHHMKIAIASGKGGTGKTTVAVNFAQVLAAAGQEVTLLDCDVEEPNVHLFLHPEFDSVSAVETTIPQVDEEKCTGCRVCAEVCEYHALAVLGKNVLVFPELCHACGACVRFCPEEAIVEIPREIGTIRKGRKGKIRLIEGRLNVGEVMSPAVIERVKKIGLDGKIGIIDAPPGTSCPVIAAVRDTDGVLLVTEPTPFGLYDLKLAVGMVRLLGIPCAVAINRSDLGEKELWRYCSDERIPIILEIPNDRRIAEAYSRGRTIIEELPEYREKFLQGWQALLESCSIA” the “soluble on expression in E. coli” value was “not soluble”. In the case of “MTTLKLFDIEHAWGLPRKVSPRFGARLILRGLHLDYLHDRASFVGEFPPAIKQQFVEAFPAMVKQLERLVATGEIDTTEQHCVSIEHAGFTCEADTLGSHGYLYIAIYQTKAKPLTTSNLTITR”, the “soluble on expression in E. coli” value is reported as “not soluble”. In the case of “MTDSTTLYPVFAEELLPGGGHRSFILKRGELLRLTDLNGNANVSLTLLNAHEKTERLNLPDSLKCQHTAKLSNGHCLYSDMGRVLAAIVTDTCGWSDSIGGVLNAQEVAEKYGQGRYQELRNGFFRNGVDNLLVELGKWGLGLSDLLMTLNLFSRVDVSETGTLHFAPNNSKAGDYIELYAPMDTLVVLTALQHPMDPNPDYVPQPLTLSWMKADASVAEHCRTSRPENERGFINTDRLFALEHHHHHH”, the “soluble on expression in E. coli” value is reported as “soluble”. For “MPLCTLRQMLGEARKHKYGVGAFNVNNMEQIQGIMKAVVQLKSPVILQCSRGALKYSDMIYLKKLCEAALEKHPDIPICIHLDHGDTLESVKMAIDLGFSSVMIDASHHPFDENVRITKEVVAYAHARSVSVEAELGTLGGIEEDVQNTVQLTEPQDAKKFVELTGVDALAVAIGTSHGAYKFKSESDIRLAIDRVKTISDLTGIPLVMHGSSSVPKDVKDMINKYGGKMPDAVGVPIESIVHAIGEGVCKINVDSDSRMAMTGAIRKVFVEHPEKFDPRDYLGPGRDAITEMLIPKIKAFGSAGHAGDYKVVSLEEAKAWYK”, the “soluble on expression in E. coli” value was “soluble”. For “AEPESCGTVRFSDVGWTDITATTATATTILEALGYETDVKVLSVPVTYTSLKNKDIDVFLGNWMPTMEADIAPYREDKSVETVRENLAGAKYTLATNAKGAELGIKDFKDIAAHKDELDGKIYGIEPGNDGNRLIIDMVEKGTFDLKGFEVVESSEQGMLAQVARAEKSGDPIVFLGWEPHPMNANFKLTYLSGGDDVFGPNYGGATVHTNVRAGYTTECPNVDKLLQNLSFSLQMENEIMGKILNDGEDPEKAAAAWLKDNPQSIEPWLSGVATKDGGDGLAAVKAALGLEHHHHHH”, the “soluble on expression in E. coli” value was “soluble”. In the case of “MMKKYLISLAKDQQRREQFFTQADTADFQVFDAVNTMQQEWDSLAVKYDITQFAQRYQRSVTKGEIGCTLSHLGVYQWIVADPQIGDNDYCLVCEDDALFNQDVQSSLTQLLSQNVHADIVLVGQSKIFGFDDAMLEIEYPTTFAPQMVAIGNSIYRYAYPYKNYYAGTVAYLIKKSTARKLVSITDLPFWLADDFILFEQQFGLDIMVVRPLMAIENPALCSNLETARASTQQALSKKLLKYPFKKWLAIQRNIGLKNDQCGNLEHHHHHH”, the “soluble on expression in E. coli” value is reported as “not soluble”. With “MAHHHHHHMQTPNSECVGPESPKAGIASSCQGCPNASICASMPKGPDPDIELIRQRLSGVKRTVMVISGKGGVGKSTLTKELAFALGQMGLNVALVDLDICGPSLPRLMGVRGEDAHQSAAGIEPVLVDETVSMISMHYLLGDKNEAVLFRGPRKNGVIKMFLKDVIWGDVDIMLIDTPPGTSDEHITVASILQQCGGVTGAILITTPQLVAEADVKREVKFSHKAKLHLLGIVENMSGFVCPNCKESSVIFPRANSQGAGKRLSDEFGVPFWGEVPLDPVLMKACEEGVSLTDIVDGKSPTIEILQSVAAKLVASLEIE” the “soluble on expression in E. coli” value was “soluble”.
